In paper PMC8371691:

Target: N-terminal(Lon)-LotP.His ('Candidatus Liberibacter asiaticus')
Assay: SEC

N-terminal(Lon)-LotP.His
stoichiometry N: 2
